# From the DeepSol protein solubility set
# Experiment: soluble on expression in E. coli; label from the status in PepcDB or PDB records
row,Sequence,soluble on expression in E. coli
1,MLPVQILKDNAQEERGESARLSSFVGAIAIGDLVKSTLGPKGMDKILISGNPESAGGIKVTNDGATILKSIGVDNPAAKVLVDMSMTQDHEVGDGTTSVTVLAAELLKEAEKLVNQRIHPQTIISGYRRALGIAQESLKKSSIESGDNIRDDLLKIARTTLGSKILSQHKEHFAQLAVDAVLRLKGSGNLDAIQIIKKLGGSMNESYLDEGFLLEKLPGMFQPRRVEKAKILIANTPMDTDKVKVFGSRVRVDGVAKVAELEAAEKLKMKEKVDKILAHNCNVFINRQLIYNYPEQLFADAKVMAIEHADFEGIERLALVLGGEIVSTFDSPQTAQFGSCDLIEEIMIGEDRLLRFSGVKLGEACSVVLRGATQQILDESERSLHDALCVLVTHVKESKTVAGAGASEILMSSAIAVEAQKVAGKEALAVEAFGRALAQLPTIICDNAGLDSAELVTRLRAEHANGRHNMGIDIEKGEVADVTKLGVIESYNVKLCMVSSAAEATEQILRVDDIIKAAPRARAQDNRPC,not soluble
2,MLQHYSVSWKKGLAALCLLAVAGLSGCDQQENAAAKVEYDGLSNSQPLRVDANNHTVTMLVQINGRFLTDDTRHGIVFKDGSNGHKSLFMGYATPKAFYEALKEAGGTPGENMTMDNKETTHVTGSKLDISVNWQGAAKAYSFDEVIVDSNGKKLDMRFGGNLTAAEEKKTGCLVCLDSCPVGIVSNATYTYGAVEKRGEVKFKGNASVLPADNTLATVTFKIAE,soluble
3,MLQPILSISGKSGLFRLVSRGKNTLIVEALDTKRRTPTYPSDRVVSLGDISIYTIEDDVPLPEVMETIYRKNEGKQLDAPALTKDNDSLRAFFGEVLPEYDVDRVYPSDIRKIISWYNLLVDNGFTTFLSDKKPAEEETTEKE,not soluble
4,MLRNGRLFGHRVETGFPDLPILEVSLRTGVRVRDMDNLKRKQVMSQKEKYKRAVKGDIAYNMMRMWQGAVGPVPEDGLVSPAYVVVKPYAEANSTYFSYLFRTAAYMQEVNKFSRGIVADRNRLYWESFKQMPSLVPPRPEQDQIVTYLRTQDAHIACFIRAKRDLIALLTEQKLRIIDHAVTRGLDASVKLKPSDIEWLGEVPAHWEVKRLKFLAGNITSQTTTKADDEIYLALEHVQSWTGVARPLGGEVEFASTVKRFVADDVLFGKLRPYLAKVTRVVCAGVCVSEFLVLRSRQELILPAYLEQLLRCKRVIDLISSSTAGAKMPRADWNFIGNVRLPIPRKDEQEAILSHIGRETKDLDETIARAEDEIKLIREYRDRLIADAVTGQVDLRGWQPGPDDVVSDDDLAALGDDDAGSSDDEEADA,not soluble
5,MLRQWWLRSVGSCSTVYRAHSGCSTSAAVKPKRAIPTDGLQLSDFIKESTKKQRQKAIIPSIEDTKEYLNPEDLQGNGRTVCYVTYGCQMNVSDMEIVRSIMTKYGFVESDKKENADIVLLMTCSIRDGAEKKVWNQLKLIRSNSVNKGQIVGVLGCMAERVRHDLLEKRNLVNIVAGPDSYRDLPRLVAVAAGGSNGINVQLSLDETYADVQPIRVDSASKTAFISIMRGCDNMCTYCVVPFTRGRERSRPIESIVEEVQRLRDQGYKQVTLLGQNVNSYRDMTSMDFSMAPSTSQEDRVPGFKTVYKPKSGGLTFTTLLEKVADAAPDIRFRFTSPHPKDFPMQLIELIASRPNLCKQLHLPAQSGDDETLERMERGYTRDLYLRLVDDIRHVLPSVSLTSDFIAGFCGETEQAHQNTLSLIRAVRYSFCFVFPYSMRGKTRAHHRLTDDVPEDVKARRHLDLTTVFREEALKLNQALIGSEQTVLLEGKSKRDASFSHGRIDGGVKAVFDNSKLCLEPGQYAKILITDANSQTLKAQLIGQSSI,not soluble
6,MLRRTLHCCTAVRHTSVPSFMQHPVEMAFYFPRFHPDTHVNAAGIPELIDAVGLMTRHSRSSRAESTASASTSAAESAMSRALPPTRWTTTVSATAQPTTDASVVEAQKDNAKSLLLLERGIDILNSVGGVRNPTVANLLRPLYAARFEMLNGSEHLPRSEYAKRMHVHKAILQQAAPLLYYDAWDKSDVHQLDTSCVLVGHFMKAFCALHPRPFHPVAAPATSGGAGSSQASSTTTTASSSSSSNSNSNVTSSSSAQSTPKGAFNPAEWKMAVGDDGEGAYLTLSIVQDRVEELLRLATAAYDKHGSTHPELRWLRPKLLVLKGLLTIPLTGHLLHAQRCIEEAAHYVDALTKRTNLLLDGLKERTHEPELGLYMLLQAEIAARVFDWDVAPGQVDGDVVNMFTDAAGYYADPPNTTLDGDAIMSERKLAEQRFEVEAYACCLRSYAAFLLGASRPEATSTRDSPVFLAKQLFSLNPLLTVATSSSLIFSDVRNVSELPLDMCRRRTGEALDRALKLNRMLYPDFRQNAPAAATLMTMACMYADTRDYLYATGLFESANKAVTYNFGDTSLEHVFLQKLRYEFLAGVGSEQEAKTASHEVVHLLKRIDALPC,soluble
7,MLRVLSRQAFSMVRAANFSASASSAGGGGLSDEVRKRIDGIVKKDDVVVFMKGTQQEPACGFSRNVKLVLDFHNVKFQDYNVLTDQELREGVKIFSEWPTIPQVYVKGEFVGGCDILISMHKDGEISDFLDEKGISNKYGKQ,not soluble
8,MLRWITAGESHGRALVAVVEGMVAGVHVTSADIADQLARRRLGYGRGARMTFERDAVTVLSGIRHGSTLGGPIAIEIGNTEWPKWETVMAADPVDPAELADVARNAPLTRPRPGHADYAGMLKYGFDDARPVLERASARETAARVAAGTVARAFLRQALGVEVLSHVISIGASAPYEGPPPRAEDLPAIDASPVRAYDKAAEADMIAQIEAAKKDGDTLGGVVEAVALGLPVGLGSFTSGDHRLDSQLAAAVMGIQAIKGVEIGDGFQTARRRGSRAHDEMYPGPDGVVRSTNRAGGLEGGMTNGQPLRVRAAMKPISTVPRALATVDLATGDEAVAIHQRSDVCAVPAAGVVVETMVALVLARAALEKFGGDSLAETQRNIAAYQRSVADREAPAARVSGHHHHHH,soluble
9,MLRWIVLICISLFLPLSAYADKSDCINHHCIAVIDAGSSSSRLHIYAYDLDETNTPIAIREIWNRKAVPGLPTIEHENKSVSAYMEKLFSDAPAVLMPVYFYSTAGMRLLPKTHHRNVNQLVAEWFDRQYYWRLVTARTISGTEEGIFAWLATNYQLNLFQQEPQTLAGVMDIGGASVQIVIPVVNPSFMDHEHTTTIRLYGKEFTVFSHSFLGLGQNEMGHQFFDLKFCFPEEYELPSGRQARGDAYACKDEIAILVNSVHSVSRKIKSVLAANPIEKWYILGGITFMLNDKLFSLDNQYFTNRDLISYADQNICHQKWSTLEVLYPDNLMVFNYCMLPSYLYALLVHGYGLKSYQKVNFMPNSKNIDWTLGVVLQHKQSAAALEHHHHHH,not soluble
10,MLSARYLHLHEALGLGPMWLKQAAAVLPPKNTPAPSAQARPQTVRAAPIRPSQPHNGQARLETMKALETAAVPTRKPAPETETPLPGLSDGIAPVPAASGITKLAVVSLCPPIEDAVYGQLFHGKAGILLDNILKAVGLDAAYVHKTCWVKTAAVGNPMPSEQAVANALGQIARELDGCRAPAVLFLGQAFVQPERQTMIETLCGSRPFFIIDHPARLLRQPELKARAWQVLKQLKRALRQGGGS,not soluble
11,MLSEVLLVSAPGKVILHGEHAVVHGKVALAVSLNLRTFLRLQPHSNGKVDLSLPNIGIKRAWDVARLQSLDTSFLEQGDVTTPTSEQVEKLKEVAGLPDDCAVTERLAVLAFLYLYLSICRKQRALPSLDIVVWSELPPGAGLGSSAAYSVCLAAALLTVCEEIPNPLKDGDCVNRWTKEDLELINKWAFQGERMIHGNPSGVDNAVSTWGGALRYHQGKISSLKRSPALQILLTNTKVPRNTRALVAGVRNRLLKFPEIVAPLLTSIDAISLECERVLGEMGEAPAPEQYLVLEELIDMNQHHLNALGVGHASLDQLCQVTRARGLHSKLTGAGGGGCGITLLKPGLEQPEVEATKQALTSCGFDCLETSIGAPGVSIHSATSLDSRVQQALDGL,soluble
12,MLSFTSRLKKDLFIKAQSLVPQHQLSRVVGKVAESENILIKAAVIQAFKTKYGIDLSIAEQADALKYKSFNEFFTRALKEGVRVVDSATGSIVSPADGAISQLGTIHDGEVFQAKGQSFSVEKLIGDPQLAQPFKQGQFATVYLSPRDYHRVHMPFTGTLTETLYIPGELFSVNQVTAENIPGLFARNERMVCLFDTELGRMAVVLVGAMIVAGIETVVTGKVKPTGRLELNHHDVTLQKGDELGRFYLGSTAIILFEKDKMVWDQQFKANSIVVMGEKLGQSTNPLEHHHHHH,not soluble
13,MLSRHINYFLAVAEHGSFTRAASALHVSQPALSQQIRQLEESLGVPLFDRSGRTIRLTDAGEVWRQYASRALQELGAGKRAIHDVADLTRGSLRIAVTPTFTSYFIGPLMADFYARYPSITLQLQEMSQEKIEDMLCRDELDVGIAFAPVHSPELEAIPLLTESLALVVAQHHPLAVHEQVALSRLHDEKLVLLSAEFATREQIDHYCEKAGLHPQVVIEANSISAVLELIRRTSLSTLLPAAIATQHDGLKAISLAPPLLERTAVLLRRKNSWQTAAAKAFLHMALDKCAVVGGNESR,not soluble
14,MLSRVRIGWLLLEDFFRMNEFEELLNSVSEVSTGDVVTAEVISVDNDQANVVIEGTGIEGVLTRRELTNDRDANVADLVKDGETLEVLVLRQVVGKDTDTVTYLVSKKRLEARKAWDKLVGREEEVVTVKGTRAVKGGLSVEFEGLRGFIPASMIDTRFVRNTEQFVGQEFDAKIKEVDPAENRFILSRREVVEAEAIEARKEVFSKLEVGSVVTGKVARLTSFGAFIDLGGVDGLVHVTELSHERNVSPKSVVSVGDEIEVKVLAIDEEAGRVSLSLKATTPGPWDGVEQKLAAGDVIEGKVKRLTDFGGFVEVLPGIDGLVHISQISHKRVENPKDVLSVGQDVTVKVLEVNADAERVSLSIKALEERPANAEGENNEKRQSRPRRPKRQEKRDYELPETQSGFSMADLFGDIEL,not soluble
15,MLSSPLRVAVVCVSNINRSMEAHSILRRKGLSVRSFGTESHVRLPGRRPNHPVVYDFATTYKEMYNDLLRKDRECYTHNGILHILGRNERIKPGPERFQECTEFFDVIFTCEERVYDTVVEDLCSREQQTFQPVHVINMDIKDTLEGAILGAFLICEICQCLQQSDDMEDSLEELLLQMEEKAGKSFLHTVCFYLEHHHHHH,soluble
16,MLSSTAIAKWQKINDVDYTWGPFKIYNISLFTETGEYKPQERPIMLTLRYNKPVDGRDFAISVAKSWANLGIALSEQNVVIERLRKILPDLKSGDALSYIALSDHGYFVLNDQVIEQEFNHEFNDAMLAIWLDPKVELSHKLITKKIEGAAQAVHYSAEYREKVTSSSEDLVSQEQRQQNLPNGTPSEATSLTEQEEREDDEKAPAISDAENDLRHSIDESAPQIVEPEQEIIPNVDPMPDYQLPVS,not soluble
17,MLSTGTKSLDSLLGGGFAPGVLTQVYGPYASGKTTLALQTGLLSGKKVAYVDTEGGFSPERLVQMAETRGLNPEEALSRFILFTPSDFKEQRRVIGSLKKTVDSNFALVVVDSITAHYRAEENRSGLIAELSRQLQVLLWIARKHNIPVIVINQVHFDSRTEMTKPVAEQTLGYRCKDILRLDKLPKPGLRVAVLERHRFRPEGLMAYFRITERGIEDVE,soluble
18,MLTIAMPKGRIFEEAVELLRRGDYALPPEFTESRKLVIDVPEENMRFILAKPMDVVTYVEHGVADLGIAGKDVLMEEERDVYELLDLQISRCHLAVAGLPGAKMNEIAPRVATKYPNIASTYFREQGEQVEIIRLNGSIELAPLIGLADRIVDIVSTGRTLRENGLVELERIAEVTSRLIVNPASYRLNGGDIERLVDRLAAVIPQP,not soluble
19,MLTIEPPSATFPASGGSSTHTITSVNESRMAFKVKSSNNEHYRVRPVYGFVEARGKMKFEIIRLEGPVKDDKIMLQYAEVPADETDAQAPFKAGAQQGDVTILLKTN,not soluble
